Laboratory results as given in the DeepSol protein solubility set.

Assay: soluble on expression in E. coli; label from the status in PepcDB or PDB records

Sequence | soluble on expression in E. coli
MESKIPAIEKHRDAYVKIRIIESLDELALGLKLLKEGFSRNSANKVFQSWKAIISALTVINLEKMPRNEKEKEWYYKSGFLAPTTGLKGISQRLEELGYKVNSLTSVALELHRYAYNGLYKGASDYYEREEAINDIIYLSKEIMKVIKEFFKEYWDEEIEEHYNLAEKELMKLEHHHHHH | not soluble
MALINNRSKFSFFNKVRVLLKNILKPDESVEDVVDEHFRFTSSLSLDAPDGQIENLYQDEKDGKYHLTLFDNGLTGATGILPAAYTEWLIERKLRYNDDAPKAFMDMFDHRMYCLSYLAWQKMHLSGDENRRDNNVLNNVLLSLGGITPQTVSVTGLAYVAFYSQPVRSLAGLEQLLSLIHQIRVSINPFRGTFENTEPSEQGVLGNCLYTLGEGPVIGNVRWVVDSHFDVVLGPVDYRKAQELMPGKDSHYFIRQQIRSYIGDVLKFKIYVKIYPGNNDNQLNINNKLGFNLSLGSETENYKERCFCIF | not soluble
MSLALRLIERDPYEHPERLRQLQQELEAFRGQLGDVGALDTVWRELQDAQEHDARGRSIAIARCYSLKNRHQDVMPYDSNRVVLRSGKDDYINASCVEGLSPYCPPLVATQAPLPGTAADFWLMVHEQKVSVIVMLVSEAEMEKQKVARYFPTERGQPMVHGALSLALSSVRSTETHVERVLSLQFRDQSLKRSLVHLHFPTWPELGLPDSPSNLLRFIQEVHAHYLHQRPLHTPIIVHCSSGVGRTGAFALLYAAVQEVEAGNGIPELPQLVRRMRQQRKHMLQEKLHLRFCYEAVVRHVEQVLQRHGEGHHHHHH | soluble
MVNLTELDRMLTETRGLLSQVRSGKGGASQEAVEGQGSAADGRIRVVAGAGGEITSIELDPRVMRMSSQELAEHLVEAVNQALRELRAQVTTAETAIAPEVLAQRLAEVQDQGLRQMTMFVEGLRDAMTQLGQRADRSG | not soluble
MNSNGPLMEHGKRRVAYYYDSNIGNYYYGQGHVMKPHRIRMTHHLVLNYGLYRNLEIFRPFPASFEDMTRFHSDEYMTFLKSANPDNLKSFNKQMLKFNVGEDCPLFDGLYEFCQLSSGGSLAAATKLNKQKVDIAINWMGGLHHAKKSEASGFCYTNDIVLGILELLKYHKRVLYVDIDVHHGDGVEEAFYTTDRVMTVSFHKYGDFFPGTGDLKDIGAGKGKLYSVNVPLRDGITDVSYQSIFKPIMTKVMERFDPCAVVLQCGADSLNGDRLGPFNLTLKGHGECARFFRSYNVPLMMVGGGGYTPRNVARCWTYETSIAVDKEVPNELPYNDYFEYFGPNYRLHIESSNAANENSSDMLAKLQTDVIANLEQLTFVPSVQMRPIPEDALSALNDDSLIADQANPDKRLPPQITDGMIQDDGDFYDGEREGDDRRNESDAKRAAQFESEGGEKRQKTE | not soluble
MFEPGHLHLVSLPGLDQQDINIHIRYEVRQNAESGAYVHFDMDGEIDGKPFSDSFELPRDTAFNFASDATRVAQKHGLHPKFGAITRVHKEYDAMFEDIRAKLHAHPGEPVDLERIIRHE | not soluble
MRATEDHTIFDRGVGQRDQLQRLWTPYRMNYLAEAPVKRDPNSSASPAQPFTEIPQLSDEEGLVVARGKLVYAVLNLYPYNPGHLMVVPYRRVSELEDLTDLESAELMAFTQKAIRVIKNVSRPHGFNVGLNLGTSAGGSLAEHLHVHVVPRWGGDANFITIIGGSKLEHHHHHH | not soluble
MGSDKIHHHHHHAAQARLDKARAMYENNEFFGAKNEIDSIRALYPKEVKVLKQGLTLMRQVEVKEAERNIAFCDSLLPIKLEEVEGLKKGFAFEKDSVYEEIGNYIWKQQTIERNVQRCYVRCGVNEEGEMYLASVYYGGRPIEHTGIKLSLKDGQFAETASIPYDGGLNYRFKDMGSTTEVVTYKGEHCVDAVKFIYDNEKERIKVEYTGGKPYIIYMADADKKAIVNTFNLATVLSDIKSMNTLKEKSEKKIAYLKNKLEE | not soluble
MIRINNIILDIDEDLENLKNKAAKKLKVSKESFESFKILRESIDARKKDVIKFNYSVEVKCKNESKIISKIHGKDAILEKNKEEERFQFGNEKLKHRPIVIGTGPCGMFAALTLAENGYAPLVIERGENVEKRTETVDNFWKTGVLNTESNVQFGEGGAGTFSDGKLTTRIKDPRCTYVLEEFIKSGAPEEIGYVGKPHIGTDILKKVVKNIRERIISLGGEVKFNSKLEDIIIKNDSIEAVVVNGAEIPCECLVLAIGHSSRDTYEMLHKKGIFMDPKPFAIGVRIEHPQDFINESQYGKYKNHPRLKAADYKLTHTTKDKRGVYSFCMCPGGEVVASSSEDERLVCNGMSYYKRDLENANAALVVTVNSEDFKASKELYNKDISDNSPLIGMEFQRYYEHLAYLAGGGNYNAPIQLVGDFMKDTVSSKLGSVKPSYTPGYKFASLSECLPPYVIAALKEGLVNFDKKITGYMLSDAVMTGIETRTSAPLKITRNESLESISLKGLYPSGEGAGFAGGIISAAVDGVKSAESIMRKYKILEHHHHHH | not soluble
MAHHHHHHMRARPSWHLRLNKNRDDVTTFRGFPATARSCCSIGSISGLQALPHPMELSSVEYRSEGWTHAICRLYRTLYKLHAKQLHPIQREFGDRFVQTEFQRHIDASEKHARIFYQSWYSYAVQLLVGQTSRDMTAEEQQQLTPEQKETMRRLRSHVLQAKQSEPGFHL | not soluble
MGSDKIHHHHHHMKGGTSKFKTHTETLYKKKKWSSVSEKRPQKCPSQCLESKQPQVSVLGKRRRASQTPAQETLESEWPQKAKRKKRRREPQTPAQETLESEWPQKAKKKKRRGEPQTPTQESLESEQPPVSLLGKRRRESQTPAQENSESEQPRKAKRRRKKRKGSQQPTSSLLKTPETFLKAKKTTSAHKKKKNSVLEVDMETGIILVDKENMENLLETSRKDVDIVYVDMSKGQRSAKVRETGELPAAKPQEHGCRELLGDVRSRKKQKHLQKVAPWDVVQGSQPESISLPPSEPLSSEDLEGKSTEAAVFCKKKSKKNVFRSQELEPIPDSLDDSETISERLDSTHHGGAVGAGEECESTKESHSIKKKSKKKKHKSVALATSSDSASVTDSKAKNALVDSSEGSGAVREEDVDHRPAEAEAQACSTEKHREAMQRLEPTHEEESNSESASNSAARHISEDRRESDDSDVDLGSAVRQLREFIPDIQERAATTIRRMYRDDLGRFKEFKAQGVAIRFGKFSAKENKQIEKNVQDFLSLTGIESADKLLYTDRYPEEKTLITNLKRKHAFRLHIGKGIARPWKLVYYRAKKIFDVNNYKGRYNEEDTKKLKAYHSLHGNDWKKIGAMVARSSLSVALKFSQIGGTRNQGAWSKAETQRLIKAVEDVILKKMSPQELRELDSKLQEDPEGRLSIVREKLYKGISWVEVEARVETRNWMQCKSKWTEILTKRMTHGGFVYRGVNALQAKITLIERLYELNVNDANEIDWEDLASAIGDVPPPFVQAKFYKLKAACVPFWQKKTFPEIIDYLYKNSLPLLKEKLDKKMKKKDGQIQTPAAPKQDFLFKDIFHCDDDSDEGSPEEPSASDVQ | not soluble
MKAIAGLTVNIKQGEFVYVVGPSGAGKSTFIKMMYREEKPSTGSINVNGLVIETLAERDVPYFRRQLGVIFQDFKLLPKLTVYENVAFALEVIEEEPDAIRERVTEVLGLVGLEDRADALPSELSGGEQQRVAIARAIVNKPKVVIADEPTGNLDIETALDIMKIFTRINERGTTIVMATHNADIVNTIRHRVIAIEGGKIVRDEIEGGYGYEG | not soluble
AECSVDIQGNDQMQFNTNAITVDKSCKQFTVNLSHPGNLPKNVMGHNWVLSTAADMQGVVTDGMASGLDKDYLKPDDSRVIAHTKLIGSGEKDSVTFDVSKLKEGEQYMFFCSELCGINHALMKGTLTLK | soluble
MAAMRKALPRRLVGLASLRAVSTSSMGTLPKRVKIVEVGPRDGLQNEKNIVSTPVKIKLIDMLSEAGLSVIETTSFVSPKWVPQMGDHTEVLKGIQKFPGINYPVLTPNLKGFEAAVAAGAKEVVIFGAASELFTKKNINCSIEESFQRFDAILKAAQSANISVRGYVSCALGCPYEGKISPAKVAEVTKKFYSMGCYEISLGDTIGVGTPGIMKDMLSAVMQEVPLAALAVHCHDTYGQALTNTLMALQMGVSVVDSSVAGLGGCPYAQGASGNLATEDLVYMLEGLGIHTGVNLQKLLEAGNFICQALNRKTSSKVAQATCKL | soluble
MGCAGSTQSQADGSVKKIRKPKPWKHTQPITKAELMKLREEFWDTAPHYGGRKEIWDALRAAAEADISLAQAIVDSAGVIVQNTDLTVCYDERGAKYELPKYVLSEPTNLEEEN | not soluble
MFQWLYDVLWLLAPIWIRRYLDKRSGSAPAYRAHRDERFGKPHPNPVTGAVWIHAVSVGETRAAQPLIRELRRRFPDAPLLMTQMTPTGRETAQVLFPDAQCRYLPYDKKTWVRQFLREHRPMFGILMETEIWPNLMKECRRAGVPLFLANARLSEKSLNGYLKVRRLIRPAAASLTGCLAQTEADAARLAKLGAASVQVCGNTKYDLMPSEDMKTLAGQFEKRIGGRPVAVCGSTRVYRGEDEAEKLLAAWQQYRGDALLAVVPRHPEHFQTTFETAKRFGFKVQRRSDGLPVEPDTQVWVGDSMGELYAYYLCADVAFVGGSLVGSGCQNIIEPLSCGVTTIFGFSTYNFSEACRHALASGAAVQVESADAWREAVEKTLSGEGGGMQMQARVDGFIAQHRGAGARIAEAVREAVCGHRGRLEHHHHHH | not soluble
MSPKFAADLKKTIYDNMTFDPKHYGGRWNILQDHGTSHLSIVDSERNAVSMTTTVNAYFGSLILSPSTGILLNNEMDDFSMPANTSANSPPPAPANFVRPLKRPLSSMTPTIILKDGNLKAAVGASGGSMIPAGTMEVLLNHFVKNMDPLSSVMAPRVYHQLIPNVVQYENWTTVTGDHFELDAATRADLRRKGHVLEPLAGGTISQLVVDDVERHGGLTAVSDPRKGGFPAGY | soluble
MGHHHHHHSHEVIKGSWQPVGDLLIDSLQDHLEKVKALRGEIAPLKENVSHVNDLARQLTTLGIQLSPYNLSTLEDLNTRWKLLQVAVEDRVRQLHEAHRDFGPASQHFLSTSVQGPWERAISPNKVPYYINHETQTTCWDHPKMTELYQSLADLNNVRFSAYRTAMKLRRLQKALCLDLLSLSAACDALDQHNLKQNDQPMDILQIINCLTTIYDRLEQEHNNLVNVPLCVDMCLNWLLNVYDTGRTGRIRVLSFKTGIISLCKAHLEDKYRYLFKQVASSTGFCDQRRLGLLLHDSIQIPRQLGEVASFGGSNIEPSVRSCFQFANNKPEIEAALFLDWMRLEPQSMVWLPVLHRVAAAETAKHQAKCNICKECPIIGFRYRSLKHFNYDICQSCFFSGRVAKGHKMHYPMVEYCTPTTSGEDVRDFAKVLKNKFRTKRYFAKHPRMGYLPVQTVLEGDNMETPVTLINFWPVDSAPAS | not soluble
MSLKQLVVKIETDNGIIGWGEAQSPVSPNTTATIIKDIVEPLTIGKDIYDVESIWHNNYSAKRERGHYTGFYIDAICGVDIAIWDAIGKSLKMPTCKAMGGAHRKSVALYNGIGGTEPEEVADQAEWSVSKGYKFVKMHLKETLEKDIEIARKVRERVGDSIGIMIDVHMGFDTFNVTKLGKELEKLNLLWLESPSDPTDIPGLCEISRSLDIPIANGEWTRTKYEMREIFEKRAYDISMPDIARTGLTGGKQIASIAQLYNIPIAPHVGGGGIVSVASTLQFSLNTPNFLIMEHSEQGHAVKAMILSESFDAENGQYSLPNKPGLGIDVDENKLEKYKINPSEGHHHHHH | soluble
MPHSCSGNYNSCAYIYGVHICKVLLILRAQNVYRNGGFMGEQLIISISREYGSGGHEIARKLADRLELAFYDRCMLDEIAEQMNADVSDFHKYDEKPGNRLLSRRVGNHTNSYEEIIAQFQFDYIRKKAESGESFVVVGRCSENVLKDYDCLISVFVTGDKEHKIQRVMEHFDLSESEAYTKMRRHDRTRKQYHNRYSEGKWGDATYYDMCINSSPLGIEKTVNVLENYVKERTGNQEL | not soluble
MLKTISPLISPELLKVLAEMGHGDEIIFSDAHFPAHSMGPQVIRADGLLVSDLLQAIIPLFELDSYAPPLVMMAAVEGDTLDPEVERRYRNALSLQAPCPDIIRINRFAFYERAQKAFAIVITGERAKYGNILLKKGVTP | soluble
